Test system: HL-60
Experiment: Cellular Toxicity Test (3) for ADCs
Assay type: cell-based
Conditions: HL-60, treatment with 333 nM of ADC
Description: In accordance with the method described in Test Example 3 or Test Example 7, cellular toxicities of Example ADCs were measured using the cell types shown in the following table. As an indicator for the cellular toxicity, IC50 or the cell survival rate upon the treatment with 333 nM of ADC was measured. However, for ADC 51, the cell survival rate upon the treatment with 26.6 nM of ADC51 was measured.

B1: ADC54: ADC of Vadastuximab and M4, average DAR 5.3 (conjugate, chains of the INN, looked up)
VH: QVQLVQSGAEVKKPGASVKVSCKASGYTFTNYDINWVRQAPGQGLEWIGWIYPGDGSTKYNEKFKAKATLTADTSTSTAYMELRSLRSDDTAVYYCASGYEDAMDYWGQGTTVTVSS
VL: DIQMTQSPSSLSASVGDRVTINCKASQDINSYLSWFQQKPGKAPKTLIYRANRLVDGVPSRFSGSGSGQDYTLTISSLQPEDFATYYCLQYDEFPLTFGGGTKVEIK
modifications: drug-linker M4, DAR 5.3
B1 was tested. Which “Cell survival rate (%)” value did it give?
The value was 68%.

Source: patent US11795195B2, “Antibody-drug conjugates including hemiasterlin derivative” (Sumitomo Pharma Co., Ltd., priority 2017, dated 2023)
